# The nanobody polyreactivity screen of Harvey et al. (2022)
# Assay: yeast display, Sf9 membrane polyspecificity reagent, FACS + sequencing; frameworks hold sequencing errors
# Summary of the method: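 Synthetic nanobody libraries on Saccharomyces cerevisiae BJ5465 were galactose-induced for 36–48 hours, stained 1 hour at 4 °C with 10% biotinylated, detergent-solubilized Sf9 membrane reagent and enriched on streptavidin microbeads. FACS then separated cells into low and high (top ~1%) gates by anti-HA (expression) and streptavidin (reagent binding) fluorescence. Genes were colony-PCR amplified, MiSeq 2 × 250 sequenced and CDR-length filtered. A clone's polyreactivity label is that of its gate of origin.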
row,Sequence,polyreactivity (PSR sort gate)
1,QVQLVESGGGLVQAGGSLRLSCAASGRIFFENTMGWYRQAPGKERELVAAISSSGTTNYADSVKGRFTISRDNAKNTVYLQMNSLKPEDTAVYYCNAVLHGEQVGKYIAYVYWGQGTQVTVAS,low polyreactivity
2,QVQLVESGGGLDQAGGSLRLSCAASGYIFGSYAMGWYRQAPGKERELVAAITISGGRTYYADSVKGRFTISRDNAKNTVYLQMNSLLPEDTAVYYCAKDGERSRNGRIHYDYWGQGTKVTVSS,low polyreactivity
3,QVQLVESGGGLVQAGGSLRLSSAASGSTFGKYARGWYRQAPGKERELVAAITVNAGRTYYADSVKGRFTISRDNAKNTVYLQLNSLKPEDTAVYYCAGVPRRYYARYYYWGQGTQVTVSS,high polyreactivity
4,QVQLVESGGGLVQAGGSLRLSCAASGSIFWFNAMGWYRQAPGKERELVAAINSSGGRTYYADSVKGRFTISRDNAKNTVYLQMNSLKPEDTAVYYCNALLWGNPASYGYWGQGTQVTVSS,high polyreactivity
5,QVQLVESGGGLVQAGGSLRLSCAASGIIFYYYGMGWYRQAPGKEREFVAAISTSGGNTYYADSVKGRFTISRDNAKNTVYLQMNSLKPEDTAVYYCAADDWPWGDAGVDYWGQGTQVTVSS,low polyreactivity
6,QVHLVETGGALVQAGGSLSISCAASGSIYHGYTMGWYRQAPGKERELVAAINSGDGSTYADSVKGRFTISRDNAKNTVYLQMNSLKQEDTAVYYCAALYAVYWPWYVREYDYWGHGTQVTVSS,low polyreactivity
7,QVQLVESGGGIVQAGGSLRLSCAASGFTIPRYAMGWYRQAPGKERELVAAITVGGGRTYYADSVKGRFTISRDNAKNTVYLQMNSLKPEDTAVYYCAADSHASTYDYWGQGTQVTVSS,low polyreactivity
8,QVQLVESGGGLVQAGVSLRLSCAASGRTLPRYAMGWYRQAPGKEREFVAAITFGGDSTYYADSVKGRFTISRDNAKNTVYLQMNSLKPEDTAVYSCAAKSFRGQRFGYWGQGTQVTVSS,high polyreactivity
9,QVQLVESGGGLVQAGGSLRLSCAASGFTFRFYAMGWYRQAPGKERELVAAISRSGGDTYYADSVKGRFTISRDNAKNTVYLQRNRLIPEDTAVYYCNKATYRVAGRDFDYWGQGTQVTVSS,high polyreactivity
10,QVQLVESGGGLVQAGGSLRLSCAASGRIFYDYAMGWYRQAPGKEREFVAAIRWRGGSTYYADSVKGRFTISRDNAKNTVYLQMNSLKPEDTAVYYCATKSYYKFGYWGQGTQVTVSS,high polyreactivity
11,QVQLVESGGGLVQAGGSLRLSCAASGSTFYNYAMGWYRQAPGKERELVAAITSSGDRTYYADSVKGRFTISRDNAKNTVYLQMNSLKPEDTAVYYCATRRYFRYEYWGQGTQVTVSS,low polyreactivity
12,QVQLVESGGGLVQAGGSLRLSCAASGRIFSGNAMGWYRQAPGKERELVAAISRGGSTDYADSVKGRFTISRDNAMNTVYLQMNSLKPEDTAVYYCAARVNGKRRRYDYWGQGTQVTVSS,high polyreactivity
13,QVQLVESGGGLVQAGGSLRLRCAASARIYDTYAMGWYRQAPGKERELVASISIDGSTYYADSVKGRFTISRDNAKNTVYLQMNSLKREDTAVYYCNADGRYYTVRFEYWGQGTQVTVSS,low polyreactivity
14,QVQLVESGGGLVQAGGRLRLSCAASGNIFYAYALGWYRQAPGKERELVAAISWSGDSTYYADSVKGRFTISRDNAKNTVYLQMNSLKPEDTAVYYCAARKVTYHYQWMDYWGQGTQVTVSS,low polyreactivity
15,QVQLVESGGGLVQAGGSLRLSCAASGIIFNSNAMGWYRQAPGKERELVAAISVSGGSTYYADSVKGRFTISRDNAKNTVYLQMNSLKPEDTAVYYCAAVFYYWSLRSYYWGQGTQVTVSS,high polyreactivity
16,QVQLVESGGGLVQAGGSLRLSCAASGFTFYKNTMGWYRQAPGKERELVAAISSSGSSTYYADSVKGRFTISRDKAKNTVYLQMNSLKPEDTAVYYCAAGRFAYHDDYWGQGTQVTVSS,high polyreactivity
17,QVQLVESGGGLVQAGGSLRLICAASGSTFGFNAMGWSRQAPGKERELLPLLWSGGSTYYADSVKGRFTISRDNAKNTVYLQMNSLIPEDTAVYYCNKDSPPITRYDYWGQGTQVTVSS,low polyreactivity
18,QVQLVESGGGLVQAGGSLRLSCAASGFIFWTYAMGWYRQAPGKERELVAAITGGGGTTYYADSVKGRFTISRDTAKNTVYLQMNSLKPEDTAVYYCAAKQYRSRSGGYWGQGTQVTVSS,high polyreactivity
19,QVQLVESGGGLVQAGGSLRLSCAASGSSFTYYTMGWYRQAPAKERELVAAISWSGGRTYYADSVTGRFTISRDNAKNTVYLQMNSLKPEDTAVYYCAAGPAPGHDSWGQGTQVTESS,high polyreactivity
20,QVQLVESGGGLVQAGGSLRLSCAASGLTFVTYAKGWYRQAPGKERELVAAISYSGGSTYYADSVKGRFTISRDNAKNTVYLQMNSLKPEDTAVYYCNARSPQPDGRPPYNYWGQGTQVTVSS,high polyreactivity
21,QDQLVESGGGLVQAGGSLRLSCDASGRIFWVYVMGWYRQAPGKERELVADITSIGGSTYYADSVKGRFTISRDNAKNTVYLQMNSLKPEDTAVYSCAADVDGYPYYQYKMGYWGQGTQVTVSS,low polyreactivity
22,QVQLVESGGGLVQAGGSLRLSCAASGSIFYTNAMGWYRQAPGKERELVAAIRYSGVSTYYADSVKGRFTISRDNAKNTVYLQMNSLKPEDSAVYSCAARGHPFKKSYGSWGQGTQVTVSS,high polyreactivity

row,Sequence,polyreactivity (PSR sort gate)
1,QVQLVESGGGLVQAGGSLRLSCAASGSIFDSYAMGWYRQAPGKEWELVAAISGNSDSTYYADSVKGRFTISRDNAKNTVYLQMNSLKPEDTAVYYCAKEGGNGYDYWGQGTQVTVSS,low polyreactivity
2,QVQHVESGGGLVQAGGSLRLSCAASGSTFYYYAMGWYRQAPGKERELVAAIRSDVSTNYADSVKGRFTISRDNAKNTVYLQMNSLKPEDTAVYYCAARFPWNRVTYDYWGQGTQVTVSS,low polyreactivity
3,QVQLVESGGGLVQAGGSLRLSCAASGSIFRFYAMGWYRQAPGQERELVAAITSGGSTNYADSVKGRFTISRDNAKNTVYLQMNSLKPEDTAVYYCAAVLVYFFIYDYWGQGTQVTVSS,low polyreactivity
4,QVQLVESGGGLVQAGGSLRFSCAASGSIFDIYGMGWYRQAPGKESELVASISGGAGSTNYADSVKGRFTISRDYAKNTVYLQMNSLKPEDTAVYYCAAVCADPTEYDYWGQGTQVTVSS,low polyreactivity
5,QVQLVESGGGLVQAGGSLRLSCAASGRTFSIYAMGWYRQAPGKERELVASITNSDGSTYYADSVKGRFTISRDNAKNTVYLQMNSLKPEDTAVYYWNVDSGKYWSLWTYVQYDDYWGQGTQVTVSS,low polyreactivity
6,QVHLVESGGGLVQAGGSLRLSCAASGFTFVSYAMGWYRQAPGKESELVAAISWSSARTYYADSVKGRFTISRHNAKNTVYLQRNSLKPEDTAVYYCNAVRGFSSSRGGYNYWGQGTQVTVSS,high polyreactivity
7,QVQLVESGGGLVHAGGSLRLSCAASGLIFTNAMGWYRQAPGKEREFVAAINSSGGSTYADSVKGRFTISRDNAKNTVYLQMNSLKPEDTAVYFCAARVIYLYEYWGQGTQVTVSS,low polyreactivity
8,QVPLVESVGGLVQAGGSLRLSCAASGLTFWRYAMGWYRQAPGKEREFVAAISSGGSTNYADSVKGRFTISRDNAKNTVYLQMNSLKPEDTAVYYCNARYYHKRSTRVIFPYDYWGQGTQVTVSS,high polyreactivity
9,QVQLVESGGGIVQAGGSLRLSCAASGRIFVRYAKGWYRQAPGKERELVAAITKSGGSTYYADSEKGRFTISRDTAKNTVYLQMNCLQPDDTAVYYCNADRFYIDYTNTYDSIRDYWGQGTLVTVSS,low polyreactivity
10,HVQLVESGGGLVQAGGSLRLSCAASGRTFYFNTMGWYRQAPGKEMELVASISYGSNTNYADSVKGRFTISRDNAKNTVYLQMNSLKPEDTAVYFCAVRWVYRTSSWGARYGRYDYWGQGTQVTVSS,high polyreactivity
11,QVQLVESGGGLVQAGGSLRLSSAASGFTFRAYAMGWYRQAPGKERELVAGISTRGGRTYYADSVKGRFTISRDNAKNTVYLQMNSLKPEDTAVYYCNAVDKTGKYDYWGQGPQVTVSS,high polyreactivity
12,QVQLVESGGGLVQAGGSLRLSCAASGSIFYYAMGWYRQAPGKERELVADISTGGSTHYADSVKGRFTISRDNAKNTVYLQMYSLKPEDTAVYYCAKEAWRYRLNFRYNYWVQGTQVTVSS,low polyreactivity
13,QVQLVESGGGLVQAGGSLRLSCAASGFIFRRNAMGWYRQAPGKERELVAVISSRGGTYYADSVKGRFTISRDNAKNTVYLQMNSLKPEDTAVYYCAVDRGKYFPYRYDYWGQGTQVTVSS,high polyreactivity
14,QVQLVESGGGLVQAGGSLRLSCAASGITLNRNAMGWYRQAPGKERELVARISRRGGTTYYADSVKGRFTISRDNAKNTVYLQMNSLKPEDTAVYYCNAGPYGGNPFDYWGQGTQVTVSS,high polyreactivity
15,QVQLVDSGGGLVQAGGSLRLSCAASGHTLAVNAMGWYRPAPGKERELVAAITSSGGSTSYADSEKGRFTISRDNAKNTVYLQMNSLKPEDTAVYYCAAEQRYPLIILYDYWGQGTQVTVSS,low polyreactivity
16,QVQLVESGGGLVQAGGSLRLTCAASGSTSYPYAMGWYRQEPGKERELVATITSGGRTNYADSVKGRFTISRDNAKNTVYLQMHSLKPEDTAVYYCNARFYRWRSYGYDYWGQGTQVTVSS,high polyreactivity
17,QVQLVESGGGLVQAGGSLRLSCAASGRICVYYAMGWYRQAPGKEREFVAAISWSGGSTYYADSVKGRFTISRDNAKNTVYLQMNSLKPEDTAVYYCAADVPWTVYYRWYDYWGQGTLVTVSS,low polyreactivity
18,QVQLVESGGGLVQAGGSLRLSCAASGSIFNYYTMGWYRQAPGKRELVAAITWSGDSTYYADSVKGRFTISRDNAKNTVYLQMNSLKPEDTAVYYCAAAQARRYYWGQGTQVTVSS,high polyreactivity
19,QVQLVESGGGLVQAGGSLRLSCAASGSTLRGNARGCYRQAPGKEREFVAAISSSGGRTYYADSVKGRFTISRDNAKNTVYLQMTSLNPEDTAVYYCAAAGYQYYFSSVPRAYYYWGQGTLVTVSS,high polyreactivity
20,QVHLVESGGGLVQAGGSLRLSCAASGSIFTRYVMGWYRQAPGKERELVAAISGRGSSTYYADSVKGRFKISRDYAKNTVYLQMNSLKPEDTAVYYCAAEIVVFYSEGQRNTFYYWGQGTQVTVSS,high polyreactivity
21,QVQLVESGGGLVQAGCSLLLSCAASGRSFTHNAMGWYRPAHGPERELGAAITSRGRTTYADSVKGRFTISRDNAKNTVYVQMNSLKPEDTAVYYCATSVWFPITSYDYWGQGTQVTVSS,low polyreactivity
